Assay results published in patent publication US20170002079A1 (Amgen, published 2017).

T1: human ST2 on primary human cells (human, UniProt Q01638 19-556)
T1 sequence: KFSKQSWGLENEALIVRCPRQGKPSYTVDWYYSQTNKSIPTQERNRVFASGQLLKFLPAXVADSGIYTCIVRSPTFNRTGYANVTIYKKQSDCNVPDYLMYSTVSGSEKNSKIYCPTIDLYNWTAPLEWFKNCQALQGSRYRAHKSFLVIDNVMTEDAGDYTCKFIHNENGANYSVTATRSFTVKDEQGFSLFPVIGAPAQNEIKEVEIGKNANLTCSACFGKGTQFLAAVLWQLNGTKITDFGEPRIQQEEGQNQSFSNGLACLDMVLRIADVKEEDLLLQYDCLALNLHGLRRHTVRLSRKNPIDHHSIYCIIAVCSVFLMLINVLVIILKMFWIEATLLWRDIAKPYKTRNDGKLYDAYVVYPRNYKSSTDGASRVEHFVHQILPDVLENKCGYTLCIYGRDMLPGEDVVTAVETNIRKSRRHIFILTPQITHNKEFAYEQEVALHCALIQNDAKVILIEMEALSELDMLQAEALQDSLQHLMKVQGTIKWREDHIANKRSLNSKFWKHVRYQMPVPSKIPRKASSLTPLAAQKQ

T2: cynomolgus monkey ST2 on cynomolgus monkey CD4+ T cells (cynomolgus monkey, UniProt Q01638 19-556 (human entry))
T2 chain: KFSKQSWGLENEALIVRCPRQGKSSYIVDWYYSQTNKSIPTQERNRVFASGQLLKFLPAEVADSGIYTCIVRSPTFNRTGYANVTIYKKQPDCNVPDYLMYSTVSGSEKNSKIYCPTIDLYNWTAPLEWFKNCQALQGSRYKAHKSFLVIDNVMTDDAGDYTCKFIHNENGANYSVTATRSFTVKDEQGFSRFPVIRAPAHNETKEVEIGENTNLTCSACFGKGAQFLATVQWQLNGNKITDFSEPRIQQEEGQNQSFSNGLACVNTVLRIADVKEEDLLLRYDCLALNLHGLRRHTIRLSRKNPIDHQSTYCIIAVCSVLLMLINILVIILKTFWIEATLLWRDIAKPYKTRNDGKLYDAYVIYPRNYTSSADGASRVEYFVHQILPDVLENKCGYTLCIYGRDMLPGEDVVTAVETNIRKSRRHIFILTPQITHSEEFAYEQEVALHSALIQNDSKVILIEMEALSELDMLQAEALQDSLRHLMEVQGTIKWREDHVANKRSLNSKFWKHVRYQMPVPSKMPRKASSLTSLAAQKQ


Columns and labels:
[1] = biological target: ST2 (Example 4, pH-sensitive binding); assay: SPR Biacore 4000; association at pH 7.4, dissociation at pH 5.5; estimated kd
Procedure: (§1) The association (5 min) rates at pH 7.4 and dissociation (10 min) rates at pH 5.5 and 7.4 were monitored at a flow rate of 30 uL/min. The reference subtracted data was fit to a 1:1 model in Scrubber.

[2] = biological target: ST2 (Example 4, pH-sensitive binding); assay: SPR Biacore 4000; association at pH 7.4, dissociation at pH 7.4; estimated kd
Procedure: as §1

[3] = biological target: ST2 (Example 4, pH-sensitive binding); assay: SPR Biacore 4000; kd at pH 5.5 against kd at pH 7.4
Procedure: as §1

[4] = biological target: T1, human ST2 on primary human cells; assay: cell-based or functional assay
[5] = biological target: T1, human ST2 on primary human cells; assay: cell-based or functional assay; remark: listed apart in the source
[6] = biological target: T1, human ST2 on primary human cells; assay: cell-based or functional assay; remark: listed apart in the source
[7] = biological target: T2, cynomolgus monkey ST2 on cynomolgus …; assay: cell-based or functional assay

| Binder | koff [1] [s⁻¹] | koff [2] [s⁻¹] | pH 7.4/pH 5.5 kd fold change [3] [fold] | IC50 (read off the curve); % inhibition of IL-5 production by human CD4+ T cells stimulated with human IL-33 + IL-2 [4] [µg/mL] | IC-50, human eosinophil IL-8 release assay (IL-33 and IL-3 stimulation) [5] [pM] | IC50 (nM), inhibition of human IL-33-induced IL-5 production from human CD4+ T cells [6] [nM] | IC-50, cynomolgus monkey CD4+ T cell IFNγ release assay (IL-33, IL-2 and IL-12p70 stimulation) [7] [pM] |
| --- | --- | --- | --- | --- | --- | --- | --- |
| Ab1 (antibody, human IgG2, kappa, V domains shown, Fully human anti-ST2 antibody (XenoMouse); Full chains are the exemplary Ab1 chains) VH: QVQLVQSGAEVKKPGASVKVSCKVSGYTLTELSIHWVRQAPGKGLEWMGGFGPEDGETIYAQKFQGRVTMTEDTSTDTAYMELSSLRSEDTAVYYCTTEDSSGLFDYWGQGTLVTVSS VL: not shown | 0.0118 | 0.000134 | 88.1 | – | – | – | – |
| Ab4 (antibody, human IgG2, kappa, V domains shown, Fully human anti-ST2 antibody) VH: QVQLVQSGAEVKKPGASVKVSCEVSGFILTELSVNWVRQAPGKGLEWMGGFDPEDGKTIYAQKFQGRVTLTEDTSTDTAYMELSSLRSEDTAVYYCATWWDFHFDFWGQGTLVTVSS VL: DFVMTQTPLSLSVTPGQPASISCKSSQSLLHSNGKTYLYWFLQKPGQPPQLLIYEVSNRFSGVPDRFSGSGSGTDFTLKISRVEAEDVGVYYCMQSIQLPLTFGGGTKVEIKR | 0.0107 | 0.000632 | 16.9 | ~0.08 | – | – | – |
| Ab8 (antibody, human IgG2, kappa, V domains shown) VH: EVQLVESGGGLVQPGGSLRLSCAASGFTFSSYDMYWVRQATGKGLEWVSAIDTVGDTYYPGSVKGRFTISRENAKNSLYLQMNSLRVGDTAVYYCARGGDYDYSYYGMDVWGQGTTVTVSS VL: not shown | – | – | – | ~0.9 | 3120 | 6.9 | 158 |
| Ab2 (antibody, human IgG2, kappa, V domains shown, Fully human anti-ST2 antibody (XenoMouse); Full chains are the exemplary Ab2 chains) VH: EVQLVQSGAEVKKPGESLKISCKGSGYSFTNYWIGWVRQMPGKGLEWMGIIYPGNSDTRFSPSFQGQVTISADKSITTAYLQWSSLKASDTAMYYCARHGTSSDYYGLDVWGQGTTVTVSS VL: not shown | 0.000238 | 2.98e-05 | 8 | ~0.03 | – | – | – |
| Ab6 (antibody, human IgG2, kappa, V domains shown) VH: EVQLVESGGGLVQPGGSLRLSCAASGFTFSTYDMHWVRQTTGKGLEWVSAIDLAGDTYYPGSVKGRFTISREDAKNSLYLQMNSLRAGDTAVYYCARGGDGYNYDYYGIDVWGQGTTVTVSS VL: DIVMTQSPLSLPVTPGEPASISCRSSQSLLHSDGYHYLDWYLQKPGQSPQLLIYLGSNRASGVPDRFSGSGSGTDFTLNISRVEAEDVGVYYCMQALQTLTFGGGTKVEIKR | – | – | – | ~0.09 | – | – | – |
| Ab5 (antibody, human IgG2, kappa, V domains shown) VH: EVQLVESGGGWVQPGGSLRLSCAASGFTFSSYDMYWVRQATGKGLEWVSGIDTVGDTYYPDSVKGRFTISRENAKNSVYLQMNTLRAGDTAVYYCVRGIYGDFYYYGLDVWGHGTTVTVSS VL: DIVMTQSPLSLPVTPGEPASISCRSSQSLLYSDGNNYLDWYLQKPGQSPHLLIYLGSNRASGVPDRFSGSGSGTDFTLKISRVEADDVGVYYCMQALQTLTFGGGTKVEIKR | – | – | – | ~0.09 | – | – | – |
| Ab7 (antibody, human IgG2, kappa, V domains shown) VH: EVQLVESGGGLVQPGGSLRLSCAASGFTFSTYDMHWVRQTTGKGLEWVSAIDLAGDTYYPGSVKGRFTISREDAKNSLYLQMNSLRAGDTAVYYCARGGDGYNYDYYGIDVWGQGTTVTVSS VL: DIVMTQSPLSLPVTPGEPASISCRSSQSLLHSDGYHYLDWYLQKPGQSPQLLIYLGSNRASGVPDRFSGSGSGTDFTLNISRVEAEDVGVYYCMQALQTLTFGGGTKVEIKR | – | – | – | ~0.02 | – | – | – |
| Ab3 (antibody, human IgG2, kappa, V domains shown, Fully human anti-ST2 antibody) VH: EVQLVESGGGLVQPGGSLRLSCAASGFTFSTYDMHWIRQAPGKNLEWVSAIDLAGDTYYPGSVKGRFTISREDAKNSLYLQMNSLRAGDTAVYYCARGGDGYNYDYYGIDVWGQGTTVTVSS VL: DIVMTQSPLSLPVTPGEPASISCRSSQSLLHSDGYHYLDWYLQKPGQSPQLLIYLGSNRASGVPDRFTGSGSGTDFTLKISRVEAEDVGVYYCMQALQILTFGGGTKVEIKR | 7.91e-05 | 2.73e-05 | 2.9 | ~0.3 | – | – | – |
